Test results as given in the nanobody polyreactivity screen of Harvey et al. (2022).

Assay: yeast display, Sf9 membrane polyspecificity reagent, FACS + sequencing; frameworks hold sequencing errors
Procedure, shortened: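 After 36–48 hours of galactose induction, yeast (Saccharomyces cerevisiae BJ5465) displaying a synthetic nanobody library were stained at 4 °C for 1 hour with 10% biotinylated, detergent-solubilized Sf9 membrane reagent. Streptavidin microbeads enriched the stained cells before FACS sorting into low and high (top ~1%) gates on anti-HA and streptavidin fluorescence. Each clone's polyreactivity label reflects its gate of origin.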

| Sequence | polyreactivity (PSR sort gate) |
| --- | --- |
| QVQLVESGGGLLQAGGSLRLSCAASGSISGYYAMGWYRQAPGKERELVASIRYTGARTYYADSVKGRFTISRDNAKNTVYLQMNSLKPEDTAVYYCAADVKRDRVWGGDYWGQGTQVTVSS | low polyreactivity |
| QVQLVESGGGLLQAGGSLRLSCAASGSIYTPYAMGWSRQAPGKERELVATITQSGSSTYYADSVKGRFTISRDNAKNSVYLQMNSLKPEDTAVYYCAADVQNISFDYWGQGTQVTVSS | low polyreactivity |
| QVQLVESGGGLLQAGGSLRLSCAASGSMFGLYAMGWYRQAPGKERELVAAISKSGGSTYYADSVKGRFTISRDNAKNTVYLQMNSLKPEDTAVYFCAARQYPRAGFDYWGQGTQVTVSS | high polyreactivity |
| QVQLVESGGGLLQAGGSLRLSCAASGSTCHRNTMGWSRQAPGKESELVAGISLRGVRTYYADSVKSRFTISRDNAKNTVYLQMNSLKPEDTAVYYCAAGGPYTRNFKLGYWGQGTQVTVSS | high polyreactivity |
| QVQLVESGGGLLQAGGSLRLSCAASGSTSPANAMGWYRQAPGKERELVAVINSGGGTNYADSVKGRFTISRDNAKNTVYLQMNCLKPEDTAVYYCAKGYRRSFIGYWYLKYGYWGQGSQVTVSS | high polyreactivity |
| QVQLVESGGGLLQAGGSLRLSCAASVSIFDSYAMGWYREAPGKERELVAVISESGGTTYNADSVKGRFTISRDNAKNTVYLQMNSLKPEDTAVYYCAAVWYFQFGVWGYYWGQGTQVTVSS | low polyreactivity |
| QVQLVESGGGLLQAGGSLRLSCAASVSIFEYYPMGWYRPAPGKERELVADITWSGGSTYYADSVKGRFTISRDNAKNTVDLQMNSLKPEDSAVYYCAKGYYVYGIFHRFGYYWGQGTQVTVSS | high polyreactivity |
| QVQLVESGGGLLQAGGSLRLSCADSGRTFGGYSMGWYRQATGKERELVAAISKRSGSTYYADSVKGRFTISRVNAKNTVYLQMNSLKPEDTAVYYCNKVWFQRSVQPVEYDYWGQGTQVTVSS | high polyreactivity |
| QVQLVESGGGLLQAGGSLRVSCAASGSIFHENAMGWYRQAPGKERELVAAIDQTGSTYADSVKGRFTISRDNAKNTVYLQMNSLKPEDTAVYYCAKGDVSLDYPSLEFDYWGQGSQVTVSS | low polyreactivity |
| QVQLVESGGGLLQAGGSRRLSCAASGRTFYSYGMGWYRRAPGKERELVARNTWSGGTYYADSVKGRFTISRDNAKNTVYLQMNSLKPEDTAVYYCAKRSYYWEYYYWGQGTQVTVSA | high polyreactivity |
| QVQLVESGGGLLQAGGTLRLSCAASGSTFSKNAMGWYRQAPGKERELVAAISSRGGNTYYADSVKGRFTISRDNAKNTVYLQMNSLKPEDTAVYYCAKALRTYQRTGWYDYWGQGTQVTVSS | high polyreactivity |
| QVQLVESGGGLLQAGVSLRLSCAASGRIYSKYAMGRYRQAPGKERELVAAITYSGGSTYYADSVKGRFTISRDNAKNTVYLQMNSLKPEDSAVYYCAAVHCTSYSKWFGYWGQGTQVSVSS | low polyreactivity |
| QVQLVESGGGLVEAGGSLRLICAASGSIFYFYGMGWYRQAPGKEREVVAAITYSGGSTYYADSVKGRYTISRDNAKNTVDLQMNSLIPEDTAVYYCNADSVLELYWKMDYWGQGTQVTVSS | low polyreactivity |
| QVQLVESGGGLVEAGGSLRLSCAASARTFIGNAMVWYRQAPGKERELVAGIDSDGSTNYADSVNGRFTSSRDNAKNTVYLQMNSLKPEDTAVYYCAAVQGYRFYEYYYWGQGTQVTVSS | low polyreactivity |
| QVQLVESGGGLVEAGGSLRLSCAASGFTFYHNAMGWYRPAPGKERELVAAISSGGTTNYADSVKGRFTISRDNAKNTVYLQMNSLTPEDTAVYYCAARGWGPTRAYDYWGQGTQVTVSS | high polyreactivity |
| QVQLVESGGGLVEAGGSLRLSCAASGLTFIVKAIGWYRQAPGKEREFVAAIRSGDGNTHYADSLKGRYTISRDNAKNTVYFQMNSLKPVDTAVYYCNAGFPRSYRFDYWGQGTQVTVSS | high polyreactivity |
| QVQLVESGGGLVEAGGSLRLSCAASGRIFKVYAMGWYRQGPGKERELVAAISRSCGSTYYADSVKGRFTISRDKAKITVSLQMNSLKPEDTAVYYCNAYFVSGHAGGYDYWGQGTQVTVSS | high polyreactivity |
| QVQLVESGGGLVEAGGSLRLSCAASGRTFQYYPMGWYRQAPGKERDFVAAITRTGARTYYADSVKGRFTISRDNAKNTVYLQMYSLKPEDTAVYYCAISLTFYSWRDYGYWGQGSQVTVSS | high polyreactivity |
| QVQLVESGGGLVEAGGSLRLSCAASGYIFGSYAMGWYRHAPGKERELVASISKSGGSTYYADSVKGRFTISRDNAKNTVYLQMNSLKPEDTAVYYCAAAGIGGGGWGQGTQVTVSS | low polyreactivity |
| QVQLVESGGGLVEAGGSLRLSCEASGFNFSRYVMGWYRQAPGKERELVAVISYRGGSTYYADSVKGRFTISRDYAKITVYLQMNSLKPEDTAVYYCNADTIPDGEDRYDYWGQGTQVTVSS | low polyreactivity |
| QVQLVESGGGLVEAGGSLRLSGAASGSIFRYYSMGWYRQAPGKERELVAAITYSGGTTYYADSVKGRFTISRDNAKNTVYLQMNSLKPEDTAVYYCAATFQANYFSGYYTVYLSDYRGQGTQVTVSS | low polyreactivity |
| QVQLVESGGGLVEAGGTLRLSCAASGSIFPINAMGWYRQAPGKQWELVAAITVSDGRTYYADSVKGRFTISRDTAKNTVYLQMNSLKPEDTAVYYCAKSSHAREYYYWGQGNQVTVSS | low polyreactivity |

| Sequence | polyreactivity (PSR sort gate) |
| --- | --- |
| QVQLVESGGGLVHAGGSIRLSCSASGRTVGVNMGWYRQSPGKERELVAVISSGDSTNYADSVKGRFTISRDNAKNTFYLQMNSLKQEDTAVYYCNAYGSDRLTLDDYWGQGTQVTVSS | low polyreactivity |
| QVQLVESGGGLVHAGGSLLLSCAASGFISSRYAMGWYRQAPGKERELVAAISRGGGSTYYADSVKGRFTISRDNAKNSVYLQMNSLKPEYTAVYYCAAAARGSPQYDYWGQGSQVTVSS | high polyreactivity |
| QVQLVESGGGLVHAGGSLLLSCSASGSIFTVNAMGWYRQAPGKERELVAAISSGGSTHYADSVKGRFTISRDNAKNTVYLQMISLKPEDTAVYYCAAVYVPYYGYYTRYDYWGQGTQVTVSS | low polyreactivity |
| QVQLVESGGGLVHAGGSLRISCAASGRTFSRNAMGWYRQAPGKERELVATISRRGGSTNYADSVKGRFTISRDYAKNTVYLQMNSLKPDDTAVYYCAAGYRVRDDKVYGIVRPMDYWGQGTQVTVSS | high polyreactivity |
| QVQLVESGGGLVHAGGSLRLRCAASGRTFYFSNMGWYRQAPGKQRELVATIRWSAGSTYYADSVKGRFTISRDNAKNSVYLQMKSLKPEDTAVYYCNGDPYVYSSWQYGYWGQGTQVTVSS | high polyreactivity |
| QVQLVESGGGLVHAGGSLRLSCAACGNIFKYYTMGWYREAPGKERELVDAITSGGRTNYADSVKGRFTISRDNAKNTVYLKMNSLKPEDTAVYYCAAYDVIYSQGFDYWGQGTQVTVSS | low polyreactivity |
| QVQLVESGGGLVHAGGSLRLSCAACGRTFGRYPMGSYRQAPGKERELVAAITVGGGSTYYADSVKGRFTISRDYAKNTVYLQMNSLKPEDTAVYYCNALHTYTYRYDYYYWGQGTQVTVSS | high polyreactivity |
| QVQLVESGGGLVHAGGSLRLSCAACGSIYKYNAMGWYRQAPGKERELVAAISYSGCSTYYSDSVNGRFTISRDNAKNTVYLQMNSLKPEDTAVYYCAKSPRASQYNMYDYWGQGTKVTVSS | high polyreactivity |
| QVQLVESGGGLVHAGGSLRLSCAASGFIFGSYTMVWYRTAPGKERELVATITLSDGSTYYADSVNGRFTISRDNANNTVFLQMNSLKPEDTAVYYCNKDKVVVRYDYWGQGTQVTVSS | low polyreactivity |
| QVQLVESGGGLVHAGGSLRLSCAASGFILRSYGMGWYRQAPGKERELVAAITRGGSTYYADSVKGRFTISRDNAKNTVYLQMNSLKPEDTAVYYCAARTRYYSQQFDYWGQGTQVTVSS | high polyreactivity |
| QVQLVESGGGLVHAGGSLRLSCAASGFTFGQYAMGWYRQAPGKERELVAAIRSGGSTNYADSVKGRFTISRDNAKNTVYLQMNSLKPEDTAVYYCAAGYRRGWVTMGYWGQGTQVTVSS | high polyreactivity |
| QVQLVESGGGLVHAGGSLRLSCAASGFTFKENAMGWSRPAPGKERELVAAISSTGGSTYYADSVKGRFTISRDNATNNVYLQMHSLNPDDTAVYYCAASTYWYDGDYWGQGTQVTVSS | high polyreactivity |
| QVQLVESGGGLVHAGGSLRLSCAASGFTFLYNSMGWYRQAPGKERELVASINSGGSTNYADSVKGRFTISRDNAKNTVYLQMNSLKPEDTAVYYCNAKRHVRKGDYWGQGTQVTVSS | low polyreactivity |
| QVQLVESGGGLVHAGGSLRLSCAASGFTFRSYTMGWYRQAHGKERELVAAITSRGTSTYYADSVKGRFTISRDNAKNTVYLQMNSLKPEDTAVYYCAAPIYNGYASWQVYYWGQGTQVTVSS | high polyreactivity |
| QVQLVESGGGLVHAGGSLRLSCAASGFTLRKYVMGWYRQAPGKERELVAAITSYASSTYFADSVKGRFTISRDNSKNTVYLQMNSLKPEDSAVYYCAARRYGEPYGYWGQGTQVTVSS | high polyreactivity |
| QVQLVESGGGLVHAGGSLRLSCAASGGILVFYAMGWYRQAPGKERELVAAINVSGGSTYYADSVKGRYTISRDNAKNTVYLQMNSLKPEDTAVYYCAALGPYLDYGVQYGYWGQGTQVTVSS | low polyreactivity |
| QVQLVESGGGLVHAGGSLRLSCAASGGTFGHYTMGWYRQAPGKERELVAAISGSGGTTYYADSVKGRFTISRDNAKNTVYLQMNSLKPEDTAVYYCAAYSGAYRKWLYDYWGQGTQVTVSS | high polyreactivity |
| QVQLVESGGGLVHAGGSLRLSCAASGITFSDNTMGWYRQAPGKERELVAAISWRGGRTYYADSVKGRFTISRDYAKNTVSLQMNSLKPEDTAVYYCNAVTSSKARSSSYDYWGQGTQVTVSS | high polyreactivity |
| QVQLVESGGGLVHAGGSLRLSCAASGLIFTNAMGWYRQAPGKEREFVAAINSSGGSTYADSVKGRFTISRDNAKNTVYLQMNSLKPEDTAVYFCAARVIYLYEYWGQGTQVTVSS | low polyreactivity |
| QVQLVESGGGLVHAGGSLRLSCAASGLISYRYAMGWYRQAPGKERELVAAISWRGGSTYYADSVKGRFTISRDNAKNTVYLQMNSLKPDDTAVYYCNALGLGLFDYWGQGTQVTVSS | high polyreactivity |
| QVQLVESGGGLVHAGGSLRLSCAASGNIFVEYAMGWYRQAPGKERELVAAITNSGGRTHYADSVKGRFTISRDNAKNTVYLQMNSLKPEDTAVYYCAAPTKYRSRRYYWGQGTQVTVSS | high polyreactivity |
